± gives the half width of the 95% confidence interval.
Tests used:
[1] = folding stability dG unfold (combined trypsin and chymotrypsin); higher = more stable
How it was run: (§1)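 Designed mini-proteins (under 80 residues, no cysteine) in a PA-tagged cDNA display construct were digested with trypsin and chymotrypsin. Each protease was used at 11 concentrations (threefold dilutions) plus a no-protease condition, followed by sequencing. K50 was inferred by Bayesian fitting of sequencing counts, and unfolding free energy was derived against a sequence-predicted unfolded-state K50 and a shared folded-state K50, per protease or combined. Only designs with AlphaFold2 dimer inter-PAE above 15 were kept.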

[2] = folding stability dG unfold from chymotrypsin proteolysis; higher = more stable
How it was run: as §1

[3] = folding stability dG unfold from trypsin proteolysis; higher = more stable
How it was run: as §1

| Sequence | folding stability dG unfold [1] | folding stability dG unfold [2] | folding stability dG unfold [3] |
| --- | --- | --- | --- |
| SAGGSAGGSAGKTIVLKTPEAIKNLKEGDVIKLKDGKKYKIVKVEYDKETNYFTIEIEKESAGGSAGGSAGG [r11_316_TrROS_Hall] | 3.54 ± 0.17 kcal/mol | 3.75 ± 0.17 kcal/mol | 2.96 ± 0.13 kcal/mol |
| SPYFMFPIDDIKVEKERDPDDGKKTYEMRVEGPNGNPFRIEFNPKDGMIHIEFPPGMKLRPGDTFELTIRSA [r9_509_TrROS] | 1.85 ± 0.21 kcal/mol | 1.59 ± 0.2 kcal/mol | 2.09 ± 0.088 kcal/mol |
| SAGGSAGGSAGPFTIMVIERVPPDDPEYDKLHKDNGMPPENMIRIKIFRFKSPEQLKELFSAGGSAGGSAGG [r11_83_TrROS] | 2.08 ± 0.086 kcal/mol | 2.12 ± 0.06 kcal/mol | 1.82 ± 0.038 kcal/mol |
| SAGGGSVTVSLEGNTTYVRISREDGPERTYTFPQPNGEPLTFTEAPGRPGLITITRPATGEPVVLALSAGGS [r16_198_JUSTAS] | 0.219 ± 0.18 kcal/mol | 0.0166 ± 0.31 kcal/mol | 0.281 ± 0.18 kcal/mol |
| MKETVTVDITVVVEDENGKKHLVRVKVTVEKLPDGTYRVTIEVENLETGKTETIEIEVKGAEFKPGDVIEIS [r1_14_TrROS_Hall] | 2.87 ± 0.12 kcal/mol | 2.56 ± 0.15 kcal/mol | 3.21 ± 0.15 kcal/mol |
| SMTRVKVELLITNPATGETFYYDIEATEEEAEEIAKELEESYPEKNATVTIKKKEVIPVEPPVVLPEGILSA [r9_14_JUSTAS] | 0.815 ± 0.069 kcal/mol | 0.906 ± 0.057 kcal/mol | 0.418 ± 0.036 kcal/mol |
| SAGGSSMYKTTTTPLSTFPVRDENGNFLEETKFEKTTVTYPDGSTVTVLKIEVGGKTFTLEVTPTPSAGGSA [r2_158_JUSTAS] | 0.565 ± 0.18 kcal/mol | 0.952 ± 0.18 kcal/mol | 0.0145 ± 0.075 kcal/mol |
| SAGGSAGGSWKIVEIEVQRFPDGMYMVEIRFPDHGMPVTVHIDPPKNKITIYFPNGRSIEIPFSAGGSAGGS [r12_88_TrROS] | 3.99 ± 0.12 kcal/mol | 4.22 ± 0.089 kcal/mol | 3.26 ± 0.11 kcal/mol |
| SEKTVLSSSTSTSPTSITTTTTVKLPDGSLITTTTTYSSVTAAPTPAPGGTLVPTYSLPTTTTTTTLPPASA [r9_240_JUSTAS] | 0.63 ± 0.11 kcal/mol | 0.309 ± 0.13 kcal/mol | 0.845 ± 0.025 kcal/mol |
| SPKIHIFIKGSIEEAVDFIRKFFPGLPIHVFDDPEQAEERAKNGDIVIAIGDEEYANRYAKKYNVPVIYISA [r9_380_TrROS] | 3.12 ± 0.053 kcal/mol | 3.338 ± 0.018 kcal/mol | 2.52 ± 0.062 kcal/mol |
| SAGGAEVDPETKVVHIRIRARSAEELLAAIEALPADEVIIEVYNEETGKTERIRLSREELRKLLEEASAGGS [r16_797_TrROS_Hall] | 2.54 ± 0.031 kcal/mol | 2.82 ± 0.018 kcal/mol | 1.92 ± 0.021 kcal/mol |
| SAGGSAMMLAKVKIELPNGEIVEIPIEFESLEELEEKIKEKARELFPDIPIEDIKILDIELYSLEESAGGSA [r15_220_TrMRF] | 5.31 ± 0.34 kcal/mol | 5.32 ± 0.13 kcal/mol | 4.06 ± 0.27 kcal/mol |
| SAGGSAGGSMKKIKVKIKITDKDGNKKEVEAEIFFDEETGKLYIKLPNGEVKEISLEDIEIVESAGGSAGGS [r12_256_TrROS_Hall] | 3.63 ± 0.09 kcal/mol | 4.01 ± 0.069 kcal/mol | 2.46 ± 0.08 kcal/mol |
| SAGGSAGGSAGPTVASVEVLEYDPETGYLTVRIYIPDNGEWVDVKAPVGTAEEIVKAAEKSAGGSAGGSAGG [r17_111_TrMRF] | 1.16 ± 0.14 kcal/mol | 1.49 ± 0.048 kcal/mol | 0.463 ± 0.077 kcal/mol |
| SAGGSAGGSMGVTVTSEEDPEVRRVRETIETPSGSVVERDMVLTRPPDGPLLREALSEKVFRPSAGGSAGGS [r12_758_JUSTAS] | -0.582 ± 0.28 kcal/mol | -1.18 ± 0.48 kcal/mol | -0.324 ± 0.15 kcal/mol |
| SAGGSAGGSAGKKIPFGKNVKILEIEEIDPDIIIIKFENSVFIVRILPNGEVKVIKFDIDSAGGSAGGSAGG [r11_612_TrMRF] | 2.33 ± 0.09 kcal/mol | 2.4 ± 0.027 kcal/mol | 1.83 ± 0.042 kcal/mol |
| SAGGSAGGMIYKFTYPKGEPPLLFTYDPSTGKVTVTEPKTGKPLGTVDLSLEEAVKAGARIEPVSAGGSAGG [r6_832_JUSTAS] | 0.84 ± 0.057 kcal/mol | 0.96 ± 0.085 kcal/mol | 0.44 ± 0.073 kcal/mol |
| SAGMKTKTIEETITFTFPPGNPPDLEEIKEKLKSKGVKVLKVEMFEPPGDYYVVTAKVVKELEPSELLSSAG [r5_167_JUSTAS] | 1.84 ± 0.13 kcal/mol | 2.27 ± 0.039 kcal/mol | 0.934 ± 0.072 kcal/mol |
| SAGGSAGGSAVSPDETVPIKIDGKEVTVTFNGSKATITFPDGTVIEGTVSTEGSKLTLDLNLSAGGSAGGSA [r18_172_JUSTAS] | 1.46 ± 0.13 kcal/mol | 1.26 ± 0.059 kcal/mol | 1.74 ± 0.053 kcal/mol |
| SAGGWWIITIEFPNPEQIKKILEEAGWKVDIERRPNGSVTIFFPPDDVDKIKKAFPGFEINIHPIPPNSAGG [r13_261_TrROS] | 4.25 ± 0.089 kcal/mol | 4.45 ± 0.093 kcal/mol | 3.58 ± 0.11 kcal/mol |
| SMPTLKITIEKKLPNGEKKKIEIEISLEELLKEARKKKGLESEEEAREALAKELAEKLKEEGYKVKIEPVSA [r9_868_TrROS_Hall] | 0.525 ± 0.32 kcal/mol | 0.209 ± 0.42 kcal/mol | 0.855 ± 0.17 kcal/mol |

| Sequence | folding stability dG unfold [1] | folding stability dG unfold [2] | folding stability dG unfold [3] |
| --- | --- | --- | --- |
| SAGGSAGGSAGKKTYKLVIPVKPDKTVEEIAEEVKKLLGPGSKVEVEEKEDGFATVYVESSAGGSAGGSAGG [r17_20_TrMRF] | 0.555 ± 0.097 kcal/mol | 0.656 ± 0.093 kcal/mol | 0.292 ± 0.04 kcal/mol |
| SAGGSLKIKIRNPDGMPFKIDVVRYPNHIRIKFKFGNKPVAFMIDPESDTINFRIPGWPFQIEIEPSAGGSA [r2_194_TrROS] | 3.26 ± 0.15 kcal/mol | 3.39 ± 0.092 kcal/mol | 2.96 ± 0.096 kcal/mol |
| SAGGSAGGSAGMVYITKGKDGIWYEAEVDPTKPGAKVKVRHPLTGKEEEITPAEVVAVPPSAGGSAGGSAGG [r11_822_TrMRF] | 0.155 ± 0.42 kcal/mol | -0.546 ± 0.6 kcal/mol | 0.141 ± 0.15 kcal/mol |
| SAGGSAKATLPEGVKIETKTFKLDGRKYMPFVFEAPDDDWVWVNEMRMDPNGKMEMETIWIPPDAVSAGGSA [r15_986_TrROS] | 0.375 ± 0.23 kcal/mol | 0.384 ± 0.44 kcal/mol | 0.368 ± 0.32 kcal/mol |
| SAGMIATITITRPGTGSITLTVPVPVPSEEEARAYAEAVREALRAADPGPLEVSVEFERVPPVPPERLGSAG [r5_87_JUSTAS] | 1.75 ± 0.1 kcal/mol | 1.85 ± 0.036 kcal/mol | 1.6 ± 0.038 kcal/mol |
| SAGGEFEVEELPPGGLLLVTFRAPADLPLEIPLEFTSPDGSPVEVAEYEREPFGDYVLITVLVRVPDSAGGS [r16_499_TrMRF] | 2.73 ± 0.18 kcal/mol | 2.77 ± 0.16 kcal/mol | 2.25 ± 0.16 kcal/mol |
| KKIHIMFNNPQHVRRIAKKLGPNVKPDDVKKNPNGYYYFEIDLPNGRPIDIHIPSENMPAEDIVDYALEMLS [r1_279_TrROS] | 0.894 ± 0.058 kcal/mol | 0.86 ± 0.089 kcal/mol | 0.88 ± 0.02 kcal/mol |
| SAGGSAGGSMKTKTIEIEIDGKKVRITIDSDGNITIEVPSEEVKEALKKLLPPGVKITKIEPVSAGGSAGGS [r12_9_TrROS_Hall] | 1.94 ± 0.21 kcal/mol | 1.61 ± 0.1 kcal/mol | 2.15 ± 0.13 kcal/mol |
| SAGGILDLAAERNAVSVEVLEVNPEPPTVTVRLTYRNAAGEPRTATFTVELPPPAPPVPLVLPGEATFSAGG [r13_608_TrMRF] | 1.85 ± 0.089 kcal/mol | 2.46 ± 0.11 kcal/mol | 0.735 ± 0.059 kcal/mol |
| SGPTVTYKVPYTRDVAVPTVKIGAKVTTTTTVTKLPNGTLASTSTSADVELTLNLPPDTPLSPNYLSTGGSA [r9_277_JUSTAS] | -0.0833 ± 0.2 kcal/mol | -0.175 ± 0.38 kcal/mol | -0.0817 ± 0.21 kcal/mol |
| SAKKKITVKIKIEYDKETGTLKVEVEITYPDGKKVKVEAEIDLKTGKITIKVYDKNGKLIAEIEIELPPSAG [r14_524_TrROS_Hall] | 2.61 ± 0.36 kcal/mol | 2.35 ± 0.092 kcal/mol | 2.68 ± 0.25 kcal/mol |
| SMVTSETRETVTVTLPDGTVVTVTVTTHRPADGVPTATVTVTTTSADGTPTTSTHTFPAAEAPALIAAALSA [r9_189_JUSTAS] | 2.35 ± 0.086 kcal/mol | 1.96 ± 0.044 kcal/mol | 2.84 ± 0.13 kcal/mol |
| SAGFSVEVTYNPPTGYLEIRFYNPPPNKPLKKETLEEIARKLLEELGIEGEIVEIKEEGNVYTIKVKIPSAG [r14_556_TrMRF] | 4.62 ± 0.084 kcal/mol | 4.65 ± 0.068 kcal/mol | 4.56 ± 0.19 kcal/mol |
| STIMIMFRSPEDLEKFLNEAKEMIRNGKNVPITIMAHGPNGRYWMFTIDIKMDPDGNPKIEIEWEPVPPDSA [r9_1023_TrROS] | 3.89 ± 0.099 kcal/mol | 4.24 ± 0.043 kcal/mol | 3.23 ± 0.1 kcal/mol |
| SAGGSAGGSAGGEIKSGDKVVLVFNEDGKGYKAYYEEELEKLLKEDPKIKKVLVVDVPAESAGGSAGGSAGG [r7_118_TrMRF] | -0.429 ± 0.22 kcal/mol | -1.04 ± 0.77 kcal/mol | -0.173 ± 0.064 kcal/mol |
| SAGGSAPRIRVHFWNPNTGQWHHIPVERLKKAIDKNPPGEELEFPIPGYPVKVQVEPDDGTIWIRMSAGGSA [r15_350_TrROS] | 1.19 ± 0.16 kcal/mol | 1.17 ± 0.25 kcal/mol | 1.01 ± 0.061 kcal/mol |
| SALKGLKITEIKEVTNEDGSKSLVVRVDGYLLVFDLDTKKLTLVPLPPVTVTVTVYEKKADPNKPEYKKKSA [r9_1065_TrROS_Hall] | 2.77 ± 0.16 kcal/mol | 3.15 ± 0.056 kcal/mol | 1.71 ± 0.042 kcal/mol |
| SAGGSAGGMVIKLPLPNDLYAEIPVYSNSDGIVTARIVLYDPSTEEKVEKPFELPFEELLDLLSSAGGSAGG [r6_858_TrMRF] | 0.712 ± 0.081 kcal/mol | 0.899 ± 0.054 kcal/mol | 0.328 ± 0.027 kcal/mol |
| SAGGTSPVTIPVTFDDLPPDAVDEAKARAEELAEELRAQGHEVLSVTIEIEPGRVTVTLTVTFPGGAPLSAG [r5_515_JUSTAS] | 1.3 ± 0.12 kcal/mol | 0.623 ± 0.054 kcal/mol | 1.93 ± 0.081 kcal/mol |
| SAGGSAGGSMEVTVTPLPDGSLLVTVTVTTSSTPVPVELRFPPSASLEEIRAAAEARAAEVAASAGGSAGGS [r12_69_JUSTAS] | 1.57 ± 0.047 kcal/mol | 1.73 ± 0.025 kcal/mol | 0.883 ± 0.029 kcal/mol |
| SAGGSAGGSAGGKKKKVIEIELKPGEKLTLEQIKEIAKKLNVKKVKVEKVDGKLKIVVESAGGSAGGSAGGS [r10_642_TrROS_Hall] | 0.815 ± 0.16 kcal/mol | 0.892 ± 0.065 kcal/mol | 0.502 ± 0.057 kcal/mol |
